The values below come from patent publication US11946041B2, “Modification of polypeptides” (BicycleRD Limited, priority 2017, dated 2024).

Entries after “also recorded” stand apart in the source; their conditions may differ.

For test [1], the target named is T1, CCR4 (Homo sapiens, UniProt P51679).
T1 construct: host or cells: CHO-K1
T1 sequence (P51679 1-360): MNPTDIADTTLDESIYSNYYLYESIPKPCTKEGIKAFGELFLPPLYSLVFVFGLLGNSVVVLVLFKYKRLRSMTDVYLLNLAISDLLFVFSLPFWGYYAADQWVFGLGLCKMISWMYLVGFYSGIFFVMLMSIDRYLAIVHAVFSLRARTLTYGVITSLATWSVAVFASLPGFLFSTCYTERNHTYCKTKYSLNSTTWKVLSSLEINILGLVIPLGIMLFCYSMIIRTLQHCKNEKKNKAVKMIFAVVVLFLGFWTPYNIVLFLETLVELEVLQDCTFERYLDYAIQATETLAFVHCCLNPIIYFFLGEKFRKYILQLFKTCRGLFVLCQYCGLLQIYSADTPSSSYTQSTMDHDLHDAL
In words: PathHunter eXpress CCR4 CHO-K1 β-Arrestin GPCR Assay, antagonist format with CCL22. The class given is cell-based. As to the method: (§1) The aim of the present experiment was to analyze if if these peptides are functional using a Discoverx Assay, the Beta-Arrestin recruitment assay, to identify agonism or antagonism in the selected peptides.
(§2) Standard protocols used: • PathHunter® eXpress CCR4 CHO-K1 β-Arrestin GPCR Assay. 100 dp (1×96-well)
(§3) The experiment was carried using the manufacturer instructions.
We therefore used the assay in an antagonist format, using 10 nM CCL22.
We repeated this experiment lowering the concentration of CCL22 from 10 nM to 1 nM to show a full inhibition curve.

Test [2] deals with T1, CCR4. In words: PathHunter eXpress CCR4 CHO-K1 β-Arrestin GPCR Assay, agonist format. The class given is cell-based. As to the method: as §1, §2, §3
The concentration was increased to test for response at high concentration.

The next test concerns the target T2, EphA3 (Homo sapiens, UniProt P29320).
T2 construct: So far all selections have been performed with soluble EphA3 ecto domain
T2 sequence (P29320 21-541 limits assumed): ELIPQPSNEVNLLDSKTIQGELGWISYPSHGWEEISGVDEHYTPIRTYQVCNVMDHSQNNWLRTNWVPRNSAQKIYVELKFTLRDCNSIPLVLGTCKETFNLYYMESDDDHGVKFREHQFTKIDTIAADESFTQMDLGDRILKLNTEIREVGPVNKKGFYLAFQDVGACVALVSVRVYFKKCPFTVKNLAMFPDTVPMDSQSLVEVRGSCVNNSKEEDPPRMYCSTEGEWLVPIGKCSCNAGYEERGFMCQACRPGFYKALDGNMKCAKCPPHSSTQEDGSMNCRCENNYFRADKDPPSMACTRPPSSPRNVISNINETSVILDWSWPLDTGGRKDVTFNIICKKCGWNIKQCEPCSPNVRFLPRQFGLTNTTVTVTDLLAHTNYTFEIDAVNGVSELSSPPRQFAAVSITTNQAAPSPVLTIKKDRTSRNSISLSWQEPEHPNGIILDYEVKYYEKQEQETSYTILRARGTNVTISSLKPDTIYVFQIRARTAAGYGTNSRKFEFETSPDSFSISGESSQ
In words: EphA3 FP competition assay with 67-10-05 as labelled tracer. Format: binding. The conditions noted are these: tracer 67-10-05.

The target of another test is T3, MT1-MMP hemopexin domain (Homo sapiens, UniProt P50281).
T3 construct: Human MMP-14 PEX protein at 71.1 μM monomer
In words: MMP-14 FP competition binding between peptide families. The method, then: FIG. 6 illustrates an analysis of MT-MMP binding ligands. A: MMP-14 FP direct binding in cell-based selections; 1 nM tracer, 60 min data. 17-98-Sar6-k(FI)-and-17-99-Sar6-k(FI)-bind with Kds of 354 nM and 501 nM respectively. B: competition binding with several combinations of peptides, both fluorescein-labelled or native, from soluble and cell based selections.
FIG. 7 illustrates the competition profile between peptide ligands isolated in this example.
• Human MMP-14 PEX protein at 71.1 μM monomer (previously 77.1 μM) (T-017-011), stored in fridge (4/7/14) • Peptides as described in Results section
Method: • Prepare assay buffer: 20 mM HEPES, 150 mM NaCl, 1 mM CaCl2), 0.1% Tween20 (pH 7.6). Buffer was filtered before use to remove precipitate. • Method according to Example 3 with tracer at 1 nM and MMP-14 PEX at concentrations detailed in the graphs • 60 min data analysed • Results are shown in FIG. 6.

For “ACRAVHSLRCLTTCA [24-17-00-N001, bicyclic peptide ligand, TATA scaffold, from CCR4 cell-based selection]”, the “Raw Data” value in the test with CCR4 [1] (1 nM CCL22, 0.001 uM) was determined as 272073; in the test with CCR4 [1] (1 nM CCL22, 0.003 uM), 292052; with CCR4 [1] (1 nM CCL22, 0.008 uM) it was 301675; with CCR4 [1] (1 nM CCL22, 0.023 uM) it was 285103; in the test with CCR4 [1] (1 nM CCL22, 0.1 uM) it was 296795; with CCR4 [1] (1 nM CCL22, 0.2 uM), 246983. In addition, the “Raw Data” value turned out to be 252179 in the test with CCR4 [1] (1 nM CCL22, 0.6 uM); 240952 in the test with CCR4 [1] (1 nM CCL22, 1.9 uM); 197381 with CCR4 [1] (1 nM CCL22, 5.6 uM); 125610 in the test with CCR4 [1] (1 nM CCL22, 16.7 uM); 114156 with CCR4 [1] (1 nM CCL22, 50 uM); 164018 in the test with CCR4 [1] (10 nM CCL22, 0.001 uM). Moreover, the “Raw Data” value with CCR4 [1] (10 nM CCL22, 0.003 uM) was found to be 174559; with CCR4 [1] (10 nM CCL22, 0.008 uM), 143078; in the test with CCR4 [1] (10 nM CCL22, 0.023 uM), 164921; with CCR4 [1] (10 nM CCL22, 0.1 uM), 153182; in the test with CCR4 [1] (10 nM CCL22, 0.2 uM), 151630; with CCR4 [1] (10 nM CCL22, 0.6 uM), 146982. Moreover, the “Raw Data” value with CCR4 [1] (10 nM CCL22, 1.9 uM) is given as 132070; with CCR4 [1] (10 nM CCL22, 5.6 uM), 148721; with CCR4 [1] (10 nM CCL22, 16.7 uM), 140316; in the test with CCR4 [1] (10 nM CCL22, 50 uM) it was 153988; with CCR4 [2] (0.006 nM), 27836; with CCR4 [2] (0.02 nM), 26107. In addition, the “Raw Data” value in the test with CCR4 [2] (0.06 nM) was found to be 29865; with CCR4 [2] (0.17 nM), 29746; in the test with CCR4 [2] (0.51 nM), 27025; in the test with CCR4 [2] (1.5 nM), 27917; in the test with CCR4 [2] (4.6 nM), 25017; with CCR4 [2] (13.9 nM) it was 23972. The “Raw Data” value is reported as 23928 with CCR4 [2] (41.7 nM); 23999 with CCR4 [2] (125 nM); 22611 with CCR4 [2] (375 nM); 11608 with CCR4 [2] (high concentration, 0.001 uM); 11809 with CCR4 [2] (high concentration, 0.003 uM); 13248 with CCR4 [2] (high concentration, 0.008 uM). Further, the “Raw Data” value in the test with CCR4 [2] (high concentration, 0.023 uM) turned out to be 13984; with CCR4 [2] (high concentration, 0.1 uM), 14856; with CCR4 [2] (high concentration, 0.2 uM), 15518; with CCR4 [2] (high concentration, 0.6 uM) it was 15965; in the test with CCR4 [2] (high concentration, 1.9 uM), 17244; with CCR4 [2] (high concentration, 5.6 uM), 17261. Moreover, the “Raw Data” value is listed as 16709 with CCR4 [2] (high concentration, 16.7 uM) and 16749 with CCR4 [2] (high concentration, 50 uM).
A word on the Ki: it is a dissociation constant, usually derived from enzyme kinetics or from competition with a known ligand. The low end stands for tighter binding, the high end for weaker binding. Take “CIPDPYQCVILRQPC [67-10-05-N005, EphA3 peptide ligand, 6X6 loops, from soluble selection; used as labelled tracer]”: the inhibition constant (Ki) at EphA3 is 5.39 nM.
For CKMESWECLMLHPKC [Peptide 17-98], the “binding site on MT1-MMP” value with MT1-MMP hemopexin domain is recorded as “binds to the same site as the 17-88 family (the collagen binding site)”.
“CPYSWETCLFGDYRC [Peptide 17-88, peptide ligand family from soluble selections against MT1-MMP hemopexin domain]”: in the test with MT1-MMP hemopexin domain, the “binding site on MT1-MMP” value was “binds to the collagen binding site” and the “competition with other peptide families” value was “do not cross compete”.
On to CQNRFPNCPINGFFC [Peptide 17-99], for which the “competition with other peptide families” value in the test with MT1-MMP hemopexin domain was “competes with all the other families”.
“CRASAGQCNPDPKLC [67-24-00-N001, EphA3 peptide from cell-based screening, 6X6 loops]”: the “Ki (nM)” value at EphA3 is recorded as “No binding”.
For the molecule CYNEFGCEDFYDIC [Peptide 17-69-07], in the test with MT1-MMP hemopexin domain, the “binding site on MT1-MMP” value is reported as “binds to a neutral binding site; also recorded: binding site is distinct from the 17-88/17-98 binding site” and the “competition with other peptide families” value is “do not cross compete”.

B1: CCL22: the natural ligand of CCR4; CCL22 Discoverx (Cat no #92-1006) (protein, UniProt O00626 25-93, looked up)
C-C motif chemokine 22: GPYGANMEDSVCCRDYVRYRLPLRVVKHFYWTSDSCPRPGVVLLTFRDKEICADPRVPWVKMILNKLSQ
What is called EC50 is the concentration giving half of the maximal effect. In the case of B1, the “Raw Data” value with CCR4 [1] (1 nM CCL22, 0.001 uM) was 189754; in the test with CCR4 [1] (1 nM CCL22, 0.003 uM) it was 206356; with CCR4 [1] (1 nM CCL22, 0.008 uM), 204398; in the test with CCR4 [1] (1 nM CCL22, 0.023 uM), 218834; in the test with CCR4 [1] (1 nM CCL22, 0.1 uM), 225758; with CCR4 [1] (1 nM CCL22, 0.2 uM), 245828. For the same molecule, the “Raw Data” value is on record as 321207 with CCR4 [1] (1 nM CCL22, 0.6 uM); 425613 with CCR4 [1] (1 nM CCL22, 1.9 uM); 422771 with CCR4 [1] (1 nM CCL22, 5.6 uM); 433500 with CCR4 [1] (1 nM CCL22, 16.7 uM); 508067 with CCR4 [1] (1 nM CCL22, 50 uM); 178148 in the test with CCR4 [1] (10 nM CCL22, 0.001 uM). Moreover, the “Raw Data” value in the test with CCR4 [1] (10 nM CCL22, 0.003 uM) stood at 150444; with CCR4 [1] (10 nM CCL22, 0.008 uM), 136281; with CCR4 [1] (10 nM CCL22, 0.023 uM), 131693; in the test with CCR4 [1] (10 nM CCL22, 0.1 uM), 151947; with CCR4 [1] (10 nM CCL22, 0.2 uM) it was 169306; in the test with CCR4 [1] (10 nM CCL22, 0.6 uM), 173881. In addition, the “Raw Data” value with CCR4 [1] (10 nM CCL22, 1.9 uM) was found to be 175875; in the test with CCR4 [1] (10 nM CCL22, 5.6 uM) it was 212050; in the test with CCR4 [1] (10 nM CCL22, 16.7 uM) it was 245795; with CCR4 [1] (10 nM CCL22, 50 uM) it was 223579; in the test with CCR4 [2] (0.006 nM), 37757; with CCR4 [2] (0.02 nM) it was 41715. Further, the “Raw Data” value in the test with CCR4 [2] (0.06 nM) came out at 57093; in the test with CCR4 [2] (0.17 nM), 84488; in the test with CCR4 [2] (0.51 nM), 111988; with CCR4 [2] (1.5 nM), 135687; with CCR4 [2] (4.6 nM) it was 172692; with CCR4 [2] (13.9 nM), 209362. Further, the “Raw Data” value is 230085 with CCR4 [2] (41.7 nM); 249665 with CCR4 [2] (125 nM); 234176 in the test with CCR4 [2] (375 nM); 16366 in the test with CCR4 [2] (high concentration, 0.001 uM); 23261 with CCR4 [2] (high concentration, 0.003 uM); 29739 with CCR4 [2] (high concentration, 0.008 uM). Also, the “Raw Data” value with CCR4 [2] (high concentration, 0.023 uM) is listed as 47935; with CCR4 [2] (high concentration, 0.1 uM) it was 67642; with CCR4 [2] (high concentration, 0.2 uM), 88410; with CCR4 [2] (high concentration, 0.6 uM), 101987; with CCR4 [2] (high concentration, 1.9 uM) it was 118822; with CCR4 [2] (high concentration, 5.6 uM), 118686. The “Raw Data” value is given as 130064 with CCR4 [2] (high concentration, 16.7 uM) and 122799 with CCR4 [2] (high concentration, 50 uM). This molecule also displayed an EC50 with CCR4 [2] of 1.65 nM.
